The data set deals with the molecule itself. As to the kind of experiment: SEC; analytical; 500 µg protein on Superdex 200 Increase 10/300 GL in PBS with 1 mM DTT, 0.3 mL/minute, 4 °C; stoichiometry estimated against standards.

B1: recombinant maltose-binding protein (MBP)-tagged HAPSTR2 (natural protein, human, UniProt A0A7P0TBJ1 1-273, looked up)
chain: MEEQQKEGEAEVAEHWFSKWERQCLAEAEQEEQLPPELQEEAAAELAGLKSEKQKLWHLFQISATAVAQLYKDSGCQQQGLSMWDPFQNAAMAVTSLYKESGDAHQRSFDLGVQVGHQRRIKDVLEWVKKGRSTIRREDLISFLCGKVPPAPPPPRTPRTPPKPPTGVTSQAVATESSSSVDVDLQPFQEAIALHGLSGAMAGISMRSGDSPQDSGVASSGRRKTSFLEDDLNPFDSEELALHLDSGGIRKRTSAQCSDGITDSPIQKRNRMV
notes: HAPSTR2, human; Vector pDest-HisMBP (Addgene 11085); No cleavage of the tags is described; Homo-oligomer by SEC; also called MBP-HAPSTR2; H2; source: E. coli BL21 (DE3), purified (Ni-NTA, dialysis); not shown: MBP, N-terminal, kept
Consider B1, for which the binding result is reported as “binds”.

(Values after article PMC9834230, “The HAPSTR2 retrogene buffers stress signaling and resilience in mammals” (Nature Communications, 2023).)
